Experimental data taken from publication PMC6739165.

Biological target: mCerulean-Hsp70 (UniProt P0DMV8)
Test: FRET or BRET

UniProt P0DMV8, sequence (P0DMV8 whole entry): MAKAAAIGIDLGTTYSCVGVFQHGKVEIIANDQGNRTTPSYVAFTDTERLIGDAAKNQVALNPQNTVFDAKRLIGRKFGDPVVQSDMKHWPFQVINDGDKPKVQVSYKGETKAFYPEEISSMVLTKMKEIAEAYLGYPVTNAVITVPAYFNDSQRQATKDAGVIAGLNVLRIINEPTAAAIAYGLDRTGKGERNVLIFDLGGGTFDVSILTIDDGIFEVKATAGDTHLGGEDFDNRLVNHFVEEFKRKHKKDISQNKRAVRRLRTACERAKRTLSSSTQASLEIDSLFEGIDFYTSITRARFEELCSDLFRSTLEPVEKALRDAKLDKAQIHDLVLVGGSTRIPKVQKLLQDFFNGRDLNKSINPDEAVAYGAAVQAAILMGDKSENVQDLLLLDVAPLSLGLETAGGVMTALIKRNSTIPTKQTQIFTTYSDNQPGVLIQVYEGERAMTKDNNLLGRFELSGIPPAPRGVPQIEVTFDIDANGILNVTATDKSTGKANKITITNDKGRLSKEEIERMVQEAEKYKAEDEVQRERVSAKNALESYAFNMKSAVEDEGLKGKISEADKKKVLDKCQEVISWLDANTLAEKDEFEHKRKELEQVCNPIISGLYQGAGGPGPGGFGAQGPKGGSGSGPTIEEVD

**Q.** “mVenus-OLA1 (from UniProt Q9NTK5 1-396) (natural protein)” was tested. Which percent FRET efficiency did it give?
**A.** 33%
